B1: PLAGL1 (parent)
chain: DPNKMAFGCEECGKKYNTMLGYKR
B2: ZNF207 (parent)
chain: FPSAGQAQAAVQGPVGTDFKPLNS

Variants of: B1
Test: protein stability index of a GFP-peptide fusion (GPS, HEK-293T) (PSI 1-6); higher = more stable
Settings: c terminus: a fixed tail appended
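Further: lentivirally expressed fusions sorted by FACS into six bins by GFP to DsRed ratio, PSI derived from sequencing read proportions per bin multiplied by bin number.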

Protein stability index, by site and new letter:
Y16: T 3.51 | N 3.04 | L 3.25 | G 2.17 | D 2.88 | W 2.72 | A 2.82 | I 2.13 | H 2.73 | Q 2.44 | V 2.73 | E 3.2 | K 3.16 | M 2.71 | C 2.58 | P 3.07 | F 2.68 | S 2.62 | R 3.4
N17: G 1.52 | W 1.76 | E 2.31 | L 1.91 | H 2.91 | F 3.25 | I 2.44 | Q 2.73 | C 2.2 | M 1.75 | R 2.02 | P 2.35 | V 1.78 | K 3.06 | T 1.99 | D 2.33 | A 2.82 | S 1.66
C9: L 3.9 | M 3.16 | R 4.08 | A 3.38 | W 3.01 | F 3.32 | I 3.32 | V 4.21 | S 4.08 | P 3.43 | T 4.07 | Y 3.61 | K 3.6 | E 3.52 | D 3.78 | G 3.67 | Q 4.16 | N 4.01
E10: P 2.3 | A 1.74 | V 2.37 | T 2.21 | N 2.29 | S 3.23 | I 2.51 | Q 2.54 | L 1.92 | K 2.6 | Y 1.92 | W 3.11 | F 2.4 | G 2.3 | R 1.64 | M 1.96 | H 2.11 | C 1.74
K14: E 3.44 | A 2.93 | R 1.99 | W 3.05 | Q 3.04 | D 2.98 | H 1.99 | M 2.56 | N 3.06 | G 2.29 | Y 1.95 | T 3.14 | S 2.39 | P 2.88 | L 1.54 | V 2.37 | F 2.23 | I 2.46
M19: G 2.64 | S 2.83 | Y 2.49 | I 2.25 | E 2.32 | W 2.11 | N 2.37 | R 2.99 | V 2.14 | H 1.32 | K 3.55 | F 1.9 | T 2.74 | Q 2.94 | A 3.16 | P 2.27 | L 2.82 | C 2.57
G21: P 2.64 | A 3.01 | Q 2.48 | M 2.06 | W 1.95 | E 3.33 | K 3.15 | R 2.94 | F 1.85 | S 2.87 | T 2.08 | D 3.13 | I 2.26 | C 3.09 | N 2.55 | H 2.56 | Y 2.06 | V 1.81
T18: N 2.3 | L 1.85 | M 2.18 | K 3.01 | D 2.42 | I 2.63 | Q 3.04 | R 2.6 | V 1.42 | C 2.35 | Y 1.87 | E 2.77 | S 2.39 | P 2.78 | F 2.15 | H 2.81 | A 3.2 | G 3.07
C12: V 4.43 | H 2.98 | N 4.1 | Q 4.24 | S 3.52 | R 4.61 | A 4.36 | M 3.93 | L 3.3 | W 2.93 | T 3.78 | D 4.49 | E 4.78 | P 4.01 | Y 3.92 | G 4.29 | K 4.4 | I 2.6 | F 3.44
F7: T 2.3 | V 2.43 | W 1.74 | Y 2.53
G13: T 2.33 | Q 2.35 | Y 2.32 | A 2.33 | H 2.45 | K 2.04 | V 1.39 | D 2.81 | W 3.27 | M 1.82 | E 2.63 | N 2.12 | P 3.96 | L 3.01 | F 1.93 | I 2.49 | R 2.53 | S 2.98 | C 1.97
K15: V 2.27 | G 2.3 | T 2.58 | F 1.81 | M 1.73 | R 1.52 | L 2.19 | C 2.63 | H 1.98 | W 2.27 | Q 3.14 | D 3.12 | S 1.96 | Y 1.71 | P 2.81 | I 1.58 | E 3.03 | N 2.99 | A 2.73
G8: W 2.03 | E 2.74 | D 2.73 | P 2.31 | T 3.12 | H 2.5 | K 2.14 | C 2.19 | S 2.19 | N 2.74 | I 2.76 | V 2.92 | M 1.96 | Q 1.98 | F 1.68 | L 2.82 | Y 2.21
E11: I 2.45 | Y 1.92 | S 2.5 | V 2.79 | H 2.28 | C 1.44 | M 2.68 | W 1.37 | D 2.65 | N 2.52 | R 1.53 | P 2.83 | L 3.19 | A 2.96 | K 2.49 | T 1.9 | G 1.77 | F 1.85 | Q 1.99
K23: W 1.35 | D 2.81 | P 2.31 | A 1.98 | Y 2.22 | I 2.95 | S 2.17 | C 2.21 | H 1.98 | G 2.21 | L 2.73 | F 2.03 | M 1.58 | V 1.79 | R 2.35 | N 2.42 | T 2.34 | E 2.15
Y22: K 3.72 | D 3.5 | P 2.02 | Q 2.72 | N 2.78 | H 2.18 | E 3.26 | I 2.8 | W 2.9 | G 3.07 | F 1.92 | V 2.94 | M 3.01 | T 2.24 | A 2.53 | L 3.15 | S 3.47 | C 3.69 | R 3.33
L20: G 2.46 | P 3.11 | V 2.7 | N 2.26 | Y 2.1 | F 2.18 | E 3.51 | D 2.82 | Q 2.33 | I 2.54 | A 2.23 | R 3.46 | K 3.26 | M 2.72 | W 2.73 | H 3.08 | S 2.59 | C 2.59
R24: I 2.05 | F 2.42 | H 3.66 | D 3.65 | Y 2.61 | N 3.27 | C 2.58 | W 1.86 | G 2.74 | S 3.3 | M 2.78 | K 4.02 | T 2.93 | A 3.02 | E 4.57 | P 2.87 | V 2.52 | Q 3.34 | L 2.05

Variants of: B2
Test: as above
Settings: c terminus: a fixed tail appended

Protein stability index of substitutions, site by site:
F1: N 4.98 | C 4.68 | T 5.3 | R 5.18 | A 5.04 | G 4.88 | D 5.56 | E 4.98 | M 4.96 | L 5.03 | K 4.65 | P 4.82 | Q 5.11 | S 5.11 | I 4.79 | V 4.92 | W 4.75 | H 4.89

Reference: the supplement of paper PMC10567573
